T1: FcγRIIb extracellular domain with C-terminal His tag (human, UniProt P31994 43-217)
T1 construct: extracellular domain; Soluble receptor expressed in FreeStyle293 cells, used as analyte in Biacore; also called FcgRIIb; 2b; not shown: His tag attached to the C terminus
T1 sequence (looked up): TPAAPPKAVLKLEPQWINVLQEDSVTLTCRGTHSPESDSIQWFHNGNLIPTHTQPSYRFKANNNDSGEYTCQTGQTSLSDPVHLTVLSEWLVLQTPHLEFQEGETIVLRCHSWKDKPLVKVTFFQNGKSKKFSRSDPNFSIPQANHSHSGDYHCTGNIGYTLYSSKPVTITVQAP


Assays:
[1] = biological target: T2, FcγRIIIa extracellular domain with C-terminal His tag (human, UniProt P08637 17-208); experiment: SPR (Biacore); He/Con_3a (FcγRIIIa) divided by He/Con_2b (FcγRIIb)
T2 construct: extracellular domain; also called FcgRIIIa; 3a; not shown: His tag attached to the C terminus
T2 sequence (P08637 17-208): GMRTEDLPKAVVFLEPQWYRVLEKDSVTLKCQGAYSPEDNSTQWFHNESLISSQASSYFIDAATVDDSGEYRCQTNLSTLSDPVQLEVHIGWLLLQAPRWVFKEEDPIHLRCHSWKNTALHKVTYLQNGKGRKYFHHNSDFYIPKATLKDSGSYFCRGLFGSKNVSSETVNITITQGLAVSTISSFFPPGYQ

[2] = biological target: T1, FcγRIIb extracellular domain with …; experiment: SPR (Biacore T100), antibody captured on antigen peptide chip, FcγR as analyte
Procedure: (§1) Analysis of interaction between objective antibody and the FcγR was carried out using Biacore T100 (GE Healthcare). HBS-EP+ (GE Healthcare) was used as the running buffer, and the measurement temperature was set to 25° C. Chips produced by immobilizing the antigen peptide by the amine coupling method to a Series S Sencor Chip CM5 (GE Healthcare), or alternatively, chips produced by allowing preliminarily biotinylated antigen peptides to interact with and immobilize onto a Series S Sensor Chip SA (certified) (GE Healthcare) were used. Antibodies of interest were captured onto an antigen peptide-immobilized chip, and allowed to interact to each FcγR diluted with running buffer. To regenerate and repeatedly use the chip, the antibodies captured on the chip were washed off by reacting 10 mM glycine-HCl, pH 1.5.

[3] = biological target: T2, FcγRIIIa extracellular domain with …; experiment: as above
Procedure: as §1

Row | Binder | He_3a/2b (IIIa/IIb) [1] [ratio] | He/Con_2b [2] | He/Con_3a [3]
1 | GpH7-A5/GpH7-B3 variant H268_01G/GpL16-k0 (antibody, human IgG1, kappa, Heterodimerized antibody (He Ab) with the mutation in only one H chain; also called He Ab H268G) heavy 1: not shown heavy 2: not shown light: DIVMTQSPLSLPVTPGEPASISCQASESLVHSNRNTYLHWYLQKPGQSPQLLIYKVSNRFSGVPDRFSGSGSGTDFTLKISRVEAEDVGVYYCSQNTHVPPTFGQGTKVEIERTVAAPSVFIFPPSDEQLKSGTASVVCLLNNFYPREAKVQWKVDNALQSGNSQESVTEQDSKDSTYSLSSTLTLSKADYEKHKVYACEVTHQGLSSPVTKSFNRGEC | 0.67 | 144 relative binding, GpH7-A5/GpH7-B3/GpL16-k0 = 100 | 96.7 relative binding, GpH7-A5/GpH7-B3/GpL16-k0 = 100
2 | GpH7-A5/GpH7-B3 variant H268_18N/GpL16-k0 (antibody, human IgG1, kappa, Heterodimerized antibody (He Ab) with the mutation in only one H chain; also called He Ab H268N) heavy 1: not shown heavy 2: not shown light: DIVMTQSPLSLPVTPGEPASISCQASESLVHSNRNTYLHWYLQKPGQSPQLLIYKVSNRFSGVPDRFSGSGSGTDFTLKISRVEAEDVGVYYCSQNTHVPPTFGQGTKVEIERTVAAPSVFIFPPSDEQLKSGTASVVCLLNNFYPREAKVQWKVDNALQSGNSQESVTEQDSKDSTYSLSSTLTLSKADYEKHKVYACEVTHQGLSSPVTKSFNRGEC | 0.67 | 156 relative binding, GpH7-A5/GpH7-B3/GpL16-k0 = 100 | 104 relative binding, GpH7-A5/GpH7-B3/GpL16-k0 = 100
3 | GpH7-A5/GpH7-B3 variant H268_20W/GpL16-k0 (antibody, human IgG1, kappa, Heterodimerized antibody (He Ab) with the mutation in only one H chain; also called He Ab H268W) heavy 1: not shown heavy 2: not shown light: DIVMTQSPLSLPVTPGEPASISCQASESLVHSNRNTYLHWYLQKPGQSPQLLIYKVSNRFSGVPDRFSGSGSGTDFTLKISRVEAEDVGVYYCSQNTHVPPTFGQGTKVEIERTVAAPSVFIFPPSDEQLKSGTASVVCLLNNFYPREAKVQWKVDNALQSGNSQESVTEQDSKDSTYSLSSTLTLSKADYEKHKVYACEVTHQGLSSPVTKSFNRGEC | 0.74 | 111 relative binding, GpH7-A5/GpH7-B3/GpL16-k0 = 100 | 82.8 relative binding, GpH7-A5/GpH7-B3/GpL16-k0 = 100
4 | GpH7-A5/GpH7-B3 variant H268_13S/GpL16-k0 (antibody, human IgG1, kappa, Heterodimerized antibody (He Ab) with the mutation in only one H chain; also called He Ab H268S) heavy 1: not shown heavy 2: not shown light: DIVMTQSPLSLPVTPGEPASISCQASESLVHSNRNTYLHWYLQKPGQSPQLLIYKVSNRFSGVPDRFSGSGSGTDFTLKISRVEAEDVGVYYCSQNTHVPPTFGQGTKVEIERTVAAPSVFIFPPSDEQLKSGTASVVCLLNNFYPREAKVQWKVDNALQSGNSQESVTEQDSKDSTYSLSSTLTLSKADYEKHKVYACEVTHQGLSSPVTKSFNRGEC | 0.76 | 160 relative binding, GpH7-A5/GpH7-B3/GpL16-k0 = 100 | 122 relative binding, GpH7-A5/GpH7-B3/GpL16-k0 = 100
5 | GpH7-A5/GpH7-B3 variant P271_01G/GpL16-k0 (antibody, human IgG1, kappa, Heterodimerized antibody (He Ab) with the mutation in only one H chain; also called He Ab P271G) heavy 1: not shown heavy 2: not shown light: DIVMTQSPLSLPVTPGEPASISCQASESLVHSNRNTYLHWYLQKPGQSPQLLIYKVSNRFSGVPDRFSGSGSGTDFTLKISRVEAEDVGVYYCSQNTHVPPTFGQGTKVEIERTVAAPSVFIFPPSDEQLKSGTASVVCLLNNFYPREAKVQWKVDNALQSGNSQESVTEQDSKDSTYSLSSTLTLSKADYEKHKVYACEVTHQGLSSPVTKSFNRGEC | 0.59 | 193 relative binding, GpH7-A5/GpH7-B3/GpL16-k0 = 100 | 113 relative binding, GpH7-A5/GpH7-B3/GpL16-k0 = 100

Results, then the binder that gave them:

Row | He_3a/2b (IIIa/IIb) [1] [ratio] | He/Con_2b [2] | He/Con_3a [3] | Binder
6 | 0.27 | 65.9 relative binding, GpH7-A5/GpH7-B3/GpL16-k0 = 100 | 17.9 relative binding, GpH7-A5/GpH7-B3/GpL16-k0 = 100 | GpH7-A5/GpH7-B3 variant S267_16H/GpL16-k0 (antibody, human IgG1, kappa, Heterodimerized antibody (He Ab) with the mutation in only one H chain; also called He Ab S267H) heavy 1: not shown heavy 2: not shown light: DIVMTQSPLSLPVTPGEPASISCQASESLVHSNRNTYLHWYLQKPGQSPQLLIYKVSNRFSGVPDRFSGSGSGTDFTLKISRVEAEDVGVYYCSQNTHVPPTFGQGTKVEIERTVAAPSVFIFPPSDEQLKSGTASVVCLLNNFYPREAKVQWKVDNALQSGNSQESVTEQDSKDSTYSLSSTLTLSKADYEKHKVYACEVTHQGLSSPVTKSFNRGEC
7 | 0.69 | 103 relative binding, GpH7-A5/GpH7-B3/GpL16-k0 = 100 | 71 relative binding, GpH7-A5/GpH7-B3/GpL16-k0 = 100 | GpH7-A5/GpH7-B3 variant P271_08L/GpL16-k0 (antibody, human IgG1, kappa, Heterodimerized antibody (He Ab) with the mutation in only one H chain; also called He Ab P271L) heavy 1: not shown heavy 2: not shown light: DIVMTQSPLSLPVTPGEPASISCQASESLVHSNRNTYLHWYLQKPGQSPQLLIYKVSNRFSGVPDRFSGSGSGTDFTLKISRVEAEDVGVYYCSQNTHVPPTFGQGTKVEIERTVAAPSVFIFPPSDEQLKSGTASVVCLLNNFYPREAKVQWKVDNALQSGNSQESVTEQDSKDSTYSLSSTLTLSKADYEKHKVYACEVTHQGLSSPVTKSFNRGEC
8 | 0.24 | 379 relative binding, GpH7-A5/GpH7-B3/GpL16-k0 = 100 | 91.9 relative binding, GpH7-A5/GpH7-B3/GpL16-k0 = 100 | GpH7-A5/GpH7-B3 variant S267_10E/GpL16-k0 (antibody, human IgG1, kappa, Heterodimerized antibody (He Ab) with the mutation in only one H chain; also called He Ab S267E) heavy 1: not shown heavy 2: not shown light: DIVMTQSPLSLPVTPGEPASISCQASESLVHSNRNTYLHWYLQKPGQSPQLLIYKVSNRFSGVPDRFSGSGSGTDFTLKISRVEAEDVGVYYCSQNTHVPPTFGQGTKVEIERTVAAPSVFIFPPSDEQLKSGTASVVCLLNNFYPREAKVQWKVDNALQSGNSQESVTEQDSKDSTYSLSSTLTLSKADYEKHKVYACEVTHQGLSSPVTKSFNRGEC
9 | 0.31 | 37.9 relative binding, GpH7-A5/GpH7-B3/GpL16-k0 = 100 | 11.8 relative binding, GpH7-A5/GpH7-B3/GpL16-k0 = 100 | GpH7-A5/GpH7-B3 variant S267_15Y/GpL16-k0 (antibody, human IgG1, kappa, Heterodimerized antibody (He Ab) with the mutation in only one H chain; also called He Ab S267Y) heavy 1: not shown heavy 2: not shown light: DIVMTQSPLSLPVTPGEPASISCQASESLVHSNRNTYLHWYLQKPGQSPQLLIYKVSNRFSGVPDRFSGSGSGTDFTLKISRVEAEDVGVYYCSQNTHVPPTFGQGTKVEIERTVAAPSVFIFPPSDEQLKSGTASVVCLLNNFYPREAKVQWKVDNALQSGNSQESVTEQDSKDSTYSLSSTLTLSKADYEKHKVYACEVTHQGLSSPVTKSFNRGEC

From US20150344570A1 (published 2015)
